Reference: US20220411517A1 (LEO PHARMA A S, published 2022)

Key:
recombinant rat IL-1RAcP = recombinant rat IL-1RAcP (rat, UniProt Q63621 21-367, limits assumed); test: ELISA (FIG. 1-3 cited)
human IL-1RAcP on cells [1] = molecular target: T1, human IL-1RAcP on cells (human, UniProt Q9NPH3 21-570); test: cell-based or functional assay
[2] = molecular target: T2, cynomolgus IL-1RAcP on cells (cynomolgus, UniProt A0A2K5X5J5 21-570); test: cell-based or functional assay
[3] = molecular target: T3, hIL-1RAP(1-367)_F-chLys_Avi (human, biotinylated (Avi tag) in SPR and ELISA binning; unlabeled in SET); test: SET, ratio of KD values
T3 construct: also called human IL-1RAcP (AG-12210)

[4] = molecular target: T4, cyIL-1RAP(1-367)_F-chLys_Avi (cynomolgus, biotinylated (Avi tag) in SPR; unlabeled in SET); test: SET, ratio of KD values
T4 construct: cynomolgus IL-1RAcP (21-367) is UniProt A0A2K5X5J5; also called cynomolgus IL-1RAcP (AG-12211)

human IL-1RAcP on cells [5] = molecular target: T1, human IL-1RAcP on cells; test: cell-based or functional assay; remark: listed apart in the source
[6] = molecular target: T2, cynomolgus IL-1RAcP on cells; test: cell-based or functional assay; remark: listed apart in the source
[7] = molecular target: T5, mouse (AG-12212) IL-1RAcP (mouse, UniProt Q61730 21-367, limits assumed); test: ELISA, Fc-capture mode of the IgGs (FIG. 1-3)
T5 construct: Recombinant tagged antigen; also called recombinant mouse IL-1RAcP; mouse IL-1RAP
From the text: Bound antibodies were detected using respective alkaline-phosphatase (AP) coupled secondary antibodies in combination with ‘AttoPhos’ fluorescence substrate. Multiple washing steps have been performed in between individual assay steps.

[8] = molecular target: T3, hIL-1RAP(1-367)_F-chLys_Avi; test: solution equilibrium titration (SET), ECL read-out, IgG
Method: (§1) MSD SulfoTAG™ NHS-Ester (Meso Scale Diagnostics) according to the manufacturer's instructions. […] Serial dilutions of unlabeled antigen were prepared, starting with a concentration at least 10 times higher than the expected KD. Wells without antigen were used to determine Bₘₐₓ values;
(§2) wells containing only assay buffer were used to determine background. […] MSD plates were coated with antigen on standard plates (30 μL per well). After washing the plate with PBS with 0.05% Tween 20, the equilibrated samples were transferred to the plates and incubated for 20 min. […] After washing the MSD plate and adding 30 μL/well MSD Read Buffer T with surfactant, electrochemiluminescence signals were detected using a MESO SECTOR S 600 (Meso Scale Diagnostics).
(§3) The data was evaluated with XLfit (IDBS) software applying customized fitting models.

[9] = molecular target: T4, cyIL-1RAP(1-367)_F-chLys_Avi; test: as above
Method: as §1, §2, §3

human IL-1RAcP on cells [10] = molecular target: T1, human IL-1RAcP on cells; test: flow cytometry on primary human dermal fibroblasts expressing endogenous IL-1RAcP (FIG. 4-1)
Method: Cell suspensions were transferred into microtiter plates and antibody samples were added followed by subsequent incubation of plates at 4° C. for 3 hours. Following incubation, cells were washed several time with FACS buffer.

[11] = molecular target: T6, human IL1RAcP domain 1 (AG-12335) (human); test: ELISA on directly coated human IL-1RAcP domain 1 (AG-12335), IgG titrated, S/BG
T6 construct: also called domain 1 of human IL-1RAcP
T6 chain: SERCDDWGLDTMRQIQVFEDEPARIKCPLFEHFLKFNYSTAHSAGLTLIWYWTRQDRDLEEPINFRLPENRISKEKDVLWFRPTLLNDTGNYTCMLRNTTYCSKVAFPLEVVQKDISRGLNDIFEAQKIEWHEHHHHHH
Method: All were assessed with direct coating of the antigen. […] An anti-His antibody served as positive control.

[12] = molecular target: T7, human IL1RAcP domain 3 (AG-12127) (human); test: ELISA on directly coated human IL-1RAcP domain 3 (AG-12127), IgG titrated, S/BG
T7 construct: also called domain 3 of human IL-1RAcP
T7 chain: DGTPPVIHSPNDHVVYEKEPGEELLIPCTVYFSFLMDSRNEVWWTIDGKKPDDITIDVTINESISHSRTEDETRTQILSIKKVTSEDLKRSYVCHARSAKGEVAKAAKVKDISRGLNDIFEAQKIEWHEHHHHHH

[13] = molecular target: T8, human IL1RAcP domain 1/2 (AG-12337) (human); test: ELISA on directly coated human IL-1RAcP domain 1/2 (AG-12337), IgG1f_AEASS titrated, S/BG
T8 construct: also called domain 1/2 of human IL-1RAcP

B1: Y024149_h_IgG1f_AEASS (antibody, V domains shown)
VH: EVQLVESGGGLVQPGGSLRLSCAASGGTFGGSAMHWVRQAPGKGLVWVSRILTYGGIATYAESVKGRFTISRDNAKNTLYLQMNSLRAEDTAVYYCARGSSEYPKFDIWGQGTLVTVSS
VL: DIQMTQSPSTLSASVGDRVTITCRASQSISSWLAWYQQKPGKAPKLLIYDASSLESGVPSRFSGSGSGTEFTLTISSLQPEDFATYYCHQLLIYPHTFGQGTKVEIKR
notes: Human IgG1f with AEASS effector-silencing residues, kappa light chain
B1 was tested, and the binding result (recombinant rat IL-1RAcP) was “no binding”, the “IC50, IL-6 release, human whole blood stimulated with 1 ng/ml rhIL-1β” value (human IL-1RAcP on cells [1]) was ~10 nM and the “IC50, IL-6 release, human whole blood stimulated with 5 ng/ml rhIL-1β” value (human IL-1RAcP on cells [1]) was ~8 nM. For the same binder, the “IC50, IL-6 release, human whole blood stimulated with 10 ng/ml rhIL-1β” value (human IL-1RAcP on cells [1]) was ~20 nM, the “IC50, IFN-γ release, cynomolgus whole blood stimulated with 300 ng/ml rcIL-33” value [2] was ~15 nM and the “IC50, IL-6 release, cynomolgus whole blood stimulated with 50 ng/ml rcIL-1β” value [2] was ~50 nM. The “IC50, IL-6 release, cynomolgus whole blood stimulated with IL-1β” value [2] was ~70 nM, the “fold stronger KD than reference R001031 (CAN04)” value [3] was ~7 fold and the “fold stronger KD than reference R001032 (1A05)” value [3] was ~3.5 fold. The “fold stronger KD than reference R001031 (CAN04)” value [4] was ~16 fold, the “fold stronger KD than reference R001032 (1A05)” value [4] was ~15 fold and the “IC50, IFNγ release, PBMC stimulated with IL-1β” value (human IL-1RAcP on cells [5]) was 1.7 nM. The “IC50, IFNγ release, PBMC stimulated with IL-33” value (human IL-1RAcP on cells [5]) was 0.2 nM, the “IC50, IL-8 release, HDFa stimulated with IL-1α” value (human IL-1RAcP on cells [5]) was 1.1 nM and the “IC50, IL-8 release, HDFa stimulated with IL-36α” value (human IL-1RAcP on cells [5]) was 0.039 nM. For the same binder, the “IC50, IL-8 release, HDFa stimulated with IL-36β” value (human IL-1RAcP on cells [5]) was 0.06 nM, the “IC50, IL-8 release, HDFa stimulated with IL-36γ” value (human IL-1RAcP on cells [5]) was 0.026 nM and the “IC50, IL-8 release, HEKa stimulated with IL-1β” value (human IL-1RAcP on cells [5]) was 31 nM. The “IC50, IL-8 release, HEKa stimulated with IL-36β” value (human IL-1RAcP on cells [5]) was 0.094 nM, the “IC50, IL-8 release, CyDFa stimulated with cynomolgus IL-1β” value [6] was 0.032 nM and the binding result [7] was “no binding”. For the same binder, the Kd [8] was 3 pM, the Kd [9] was 1 pM and the EC50 (human IL-1RAcP on cells [10]) was 1.48 nM. For the same binder, the binding result [11] was “no binding (tested: 2e-7 M)”, the binding result [12] was “no binding (tested: 2e-7 M)” and the “EC50 (read off the curve)” value [13] was ~5 nM.
